Experimental findings from PMC11055677 (Cell, 2024) are described below.

The labels stand for the following.
B1: CINP, full-length wild type, subunit of the reconstituted 55LCC complex (natural protein, human, UniProt Q9BW66 1-212, looked up)
chain: MEAKTLGTVTPRKPVLSVSARKIKDNAADWHNLILKWETLNDAGFTTANNIANLKISLLNKDKIELDSSSPASKENEEKVCLEYNEELEKLCEELQATLDGLTKIQVKMEKLSSTTKGICELENYHYGEESKRPPLFHTWPTTHFYEVSHKLLEMYRKELLLKRTVAKELAHTGDPDLTLSYLSMWLHQPYVESDSRLHLESMLLETGHRAL
B4: SPATA5, full-length wild type, subunit of the reconstituted 55LCC complex (enzyme, human, UniProt Q8NB90 1-893, looked up)
chain: MSSKKNRKRLNQSAENGSSLPSAASSCAEARAPSAGSDFAATSGTLTVTNLLEKVDDKIPKTFQNSLIHLGLNTMKSANICIGRPVLLTSLNGKQEVYTAWPMAGFPGGKVGLSEMAQKNVGVRPGDAIQVQPLVGAVLQAEEMDVALSDKDMEINEEELTGCILRKLDGKIVLPGNFLYCTFYGRPYKLQVLRVKGADGMILGGPQSDSDTDAQRMAFEQSSMETSSLELSLQLSQLDLEDTQIPTSRSTPYKPIDDRITNKASDVLLDVTQSPGDGSGLMLEEVTGLKCNFESAREGNEQLTEEERLLKFSIGAKCNTDTFYFISSTTRVNFTEIDKNSKEQDNQFKVTYDMIGGLSSQLKAIREIIELPLKQPELFKSYGIPAPRGVLLYGPPGTGKTMIARAVANEVGAYVSVINGPEIISKFYGETEAKLRQIFAEATLRHPSIIFIDELDALCPKREGAQNEVEKRVVASLLTLMDGIGSEVSEGQVLVLGATNRPHALDAALRRPGRFDKEIEIGVPNAQDRLDILQKLLRRVPHLLTEAELLQLANSAHGYVGADLKVLCNEAGLCALRRILKKQPNLPDVKVAGLVKITLKDFLQAMNDIRPSAMREIAIDVPNVSWSDIGGLESIKLKLEQAVEWPLKHPESFIRMGIQPPKGVLLYGPPGCSKTMIAKALANESGLNFLAIKGPELMNKYVGESERAVRETFRKARAVAPSIIFFDELDALAVERGSSLGAGNVADRVLAQLLTEMDGIEQLKDVTILAATNRPDRIDKALMRPGRIDRIIYVPLPDAATRREIFKLQFHSMPVSNEVDLDELILQTDAYSGAEIVAVCREAALLALEEDIQANLIMKRHFTQALSTVTPRIPESLRRFYEDYQEKSGLHTL

The target of series [1] is B4. The series can be described thus: mass photometry; reconstituted 55LCC, 120 nM final, 25 mM Tris pH 7.5, 400 mM NaCl, with 2 mM ADP or after addition of 5 mM ATPγS (more of the 55LCC peak with ATPγS). The conditions noted are these: both partners purified.
For series [2], the target named is T1, C1orf109, untagged, of the purified C1orf109-CINP sub-complex (human, UniProt Q9NX04 1-203).
T1 sequence (looked up): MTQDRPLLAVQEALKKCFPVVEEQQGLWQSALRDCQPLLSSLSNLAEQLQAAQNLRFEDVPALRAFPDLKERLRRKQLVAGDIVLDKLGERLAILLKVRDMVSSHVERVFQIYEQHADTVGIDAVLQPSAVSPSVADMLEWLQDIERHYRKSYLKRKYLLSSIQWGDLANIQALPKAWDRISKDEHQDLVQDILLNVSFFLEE
The series can be described thus: native MS; untagged proteins in 500 mM ammonium acetate; 12 μM C1orf109, 20 μM CINP, 20 μM C1orf109-CINP complex. The settings on record: both partners purified.

For series [3], the target named is B1. Nature of the series: cryo-EM structure; reconstituted 55LCC incubated with 5 mM ATPγS, 0.01% fluorinated octyl maltoside; AlphaFold 2 models rigid-body fitted into the composite map. The conditions noted are these: both partners purified.
Series [4] concerns the molecule itself. The series is described as above.

Turning to B1, the binding result in series [1] is “binds”.

B2: CINP, untagged, of the purified C1orf109-CINP sub-complex (natural protein, human, UniProt Q9BW66 1-212, looked up)
chain: MEAKTLGTVTPRKPVLSVSARKIKDNAADWHNLILKWETLNDAGFTTANNIANLKISLLNKDKIELDSSSPASKENEEKVCLEYNEELEKLCEELQATLDGLTKIQVKMEKLSSTTKGICELENYHYGEESKRPPLFHTWPTTHFYEVSHKLLEMYRKELLLKRTVAKELAHTGDPDLTLSYLSMWLHQPYVESDSRLHLESMLLETGHRAL
As for B2, the “stoichiometry N” value in series [2] came out at 1.

B3: C1orf109, full-length wild type, subunit of the reconstituted 55LCC complex (natural protein, human, UniProt Q9NX04 1-203, looked up)
chain: MTQDRPLLAVQEALKKCFPVVEEQQGLWQSALRDCQPLLSSLSNLAEQLQAAQNLRFEDVPALRAFPDLKERLRRKQLVAGDIVLDKLGERLAILLKVRDMVSSHVERVFQIYEQHADTVGIDAVLQPSAVSPSVADMLEWLQDIERHYRKSYLKRKYLLSSIQWGDLANIQALPKAWDRISKDEHQDLVQDILLNVSFFLEE
As to B3, in series [3], the binding result was “binds”. Turning to B4, the binding result in series [4] is on record as “binds”.
